From patent publication US20020099177A1 (Human Genome Sciences, published 2002)

Target: T1, IL-1 receptor type I (Flag-IL-1RI) (human, UniProt P14778 18-569)
T1 construct: not shown: Flag tag from pCMV-1-Flag expression vector
T1 sequence (looked up): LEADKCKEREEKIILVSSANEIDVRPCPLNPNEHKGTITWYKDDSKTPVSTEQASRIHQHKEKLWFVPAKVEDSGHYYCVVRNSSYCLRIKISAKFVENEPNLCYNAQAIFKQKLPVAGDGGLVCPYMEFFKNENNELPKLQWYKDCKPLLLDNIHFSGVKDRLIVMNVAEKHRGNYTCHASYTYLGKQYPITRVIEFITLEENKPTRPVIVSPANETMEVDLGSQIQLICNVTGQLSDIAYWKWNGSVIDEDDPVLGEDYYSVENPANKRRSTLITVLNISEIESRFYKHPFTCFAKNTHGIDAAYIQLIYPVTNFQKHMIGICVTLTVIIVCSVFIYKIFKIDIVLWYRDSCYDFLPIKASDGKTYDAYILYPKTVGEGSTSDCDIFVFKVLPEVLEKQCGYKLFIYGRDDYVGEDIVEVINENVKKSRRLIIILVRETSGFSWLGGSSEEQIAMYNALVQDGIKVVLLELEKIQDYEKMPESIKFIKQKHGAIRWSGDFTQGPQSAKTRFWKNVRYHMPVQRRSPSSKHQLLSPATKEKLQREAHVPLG
Assay: coimmunoprecipitation from transfected 293/293T cell lysates
Experimental: The total amount of DNA was kept constant. 24-36 hours after transfection, cells were lysed in 0.5 ml buffer (1% NP40, 150 mM NaCl, 50 mM Tris, 1 mM EDTA and protease inhibitors cocktail). Cell lysates were adjusted to 0.7 M NaCl and the indicated antibodies were added for 1 to 4 hours. Immune complexes were precipitated by the addition of protein-G-Sepharose (Sigma). After extensive washing, the Sepharose heads were boiled in sample buffer and the eluted proteins fractionated by SDS-PAGE. Subsequent protein immunoblotting was performed as described (Chinnaiyan, A., et al., Cell 81:505-12 (1995)).

binding result: no binding
B1: IRAK-2 (97-590) (enzyme)
chain: PEIRCPIPAFPDSVKPEKPLAASVRKAEDEQEEGQPVRMATFPGPGSSPARAHQPAFLQPPEEDAPHSLRSDLPTSSDSKDFSTSIPKQEKLLSLAGDSLFWSEADVVQATDDFNQNRKISQGTFADVYRGHRHGKPFVFKKLRETACSSPGSIERFFQAELQICLRCCHPNVLPVLGFCAARQFHSFIYPYMANGSLQDRLQGQGGSEPLPWPQRVSICSGLLCAVEYLHGLEIIHSNVKSSNVLLDQNLTPKLAHPMAHLCPVNKRSKYTMMKTHLLRTSAAYLPEDFIRVGQLTKRVDIFSCGIVLAEVLTGIPAMDNNRSPVYLKDLLLSEIPSSTASLCSRKTGVENVMAKEICQKYLEKGAGRLPEDCAEALATAACLCLRRRNTSLQEVCGSVAAVEERLRGRETLLPWSGLSEGTGSSSNTPEETDDVDNSSLDASSSMSVAPWAGAATPLLPTENGEGRLRVIVGREADSSSEACVGLEPPQDVT
notes: Truncated IRAK-2 lacking the N-terminal domain (DD); also called IRAK-2 (97-590)-MyC; mutant version of IRAK-2 lacking the first 96 amino acid residues; not shown: C-terminal Myc(-His) tag from pCDNA3-MyC-His vector
